US20160060307A1 (KYUNGPOOK NATIONAL UNIVERSITY INDUSTRY ACADEMIC COOPERATION …, published 2016)
Substitutions are numbered along the chain they refer to.

T1: IL-4 receptor protein immobilised on carboxymethyl dextran chip (SPR) (Homo sapiens (Human), UniProt P24394 26-232)
T1 construct: Soluble protein coupled to the chip by EDC/NHS
T1 sequence: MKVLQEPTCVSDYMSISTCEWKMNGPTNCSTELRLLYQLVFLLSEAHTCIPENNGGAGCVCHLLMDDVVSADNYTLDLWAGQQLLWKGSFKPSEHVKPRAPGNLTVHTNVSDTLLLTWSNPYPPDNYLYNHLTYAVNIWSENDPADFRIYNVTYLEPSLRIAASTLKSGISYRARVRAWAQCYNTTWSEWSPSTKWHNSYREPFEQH

B1: FTL-GG-AP1L: ferritin having AP1L inserted in GG cassette (human ferritin light chain, fourth loop) (designed binder)
chain: MSSQIRQNYSTDVEAAVNSLVNLYLQASYTYLSLGFYFDRDDVALEGVSHFFRELAEEKREGYERLLKMQNQRGGRALFQDIKKPAEDEWGKTPDAMKAAMALEKKLNQALLDLHALGSARTDPHLCDFLETHFLDEEVKLIKKMGDHLTNLHRGSCRKRLDRNCGGPEAGLGEYLFERLTLKHD
modifications: One monomer is given; it assembles into a 24-mer ferritin cage.
notes: pET28a(+) expression with Ni-NTA purification (His tag); Cage-forming; also called 157cysAP1-PBNC; not shown: His tag from the pET28a(+) vector (Ni-NTA purification, anti-His probe)
B2: FTL-GP-AP1L: ferritin having AP1L inserted in GP cassette (human ferritin light chain, fourth loop) (designed binder)
chain: MSSQIRQNYSTDVEAAVNSLVNLYLQASYTYLSLGFYFDRDDVALEGVSHFFRELAEEKREGYERLLKMQNQRGGRALFQDIKKPAEDEWGKTPDAMKAAMALEKKLNQALLDLHALGSARTDPHLCDFLETHFLDEEVKLIKKMGDHLTNLHRLGSCRKRLDRNCGPEAGLGEYLFERLTLKHD
modifications: One monomer is given; it assembles into a 24-mer ferritin cage.
notes: pET28a(+) expression with Ni-NTA purification (His tag); Cage-forming; not shown: His tag from the pET28a(+) vector (Ni-NTA purification, anti-His probe)
B3: FTL-GG-AP1S: ferritin having AP1S inserted in GG cassette (human ferritin light chain, fourth loop) (designed binder)
chain: MSSQIRQNYSTDVEAAVNSLVNLYLQASYTYLSLGFYFDRDDVALEGVSHFFRELAEEKREGYERLLKMQNQRGGRALFQDIKKPAEDEWGKTPDAMKAAMALEKKLNQALLDLHALGSARTDPHLCDFLETHFLDEEVKLIKKMGDHLTNLHRGSRKRLDRNGGPEAGLGEYLFERLTLKHD
modifications: One monomer is given; it assembles into a 24-mer ferritin cage.
notes: It forms a ferritin-like cage (24-mer); also called FTL-AP1; not shown: His tag from the pET28a(+) vector (Ni-NTA purification, anti-His probe)
B4: FTL-GP-AP1S: ferritin having AP1S inserted in GP cassette (human ferritin light chain, fourth loop) (designed binder)
chain: B3 chain with G155L, S156G, R157S, K158R, R159K, L160R, D161L, R162D, N163R, G164N
modifications: One monomer is given; it assembles into a 24-mer ferritin cage.
notes: as for B2
B5: FTL-AP1_AP1: fusion polypeptide in which AP1S was fused to N-terminal of FTL_GG-AP1S (designed binder)
chain: MRKRLDRNGGGSGMSSQIRQNYSTDVEAAVNSLVNLYLQASYTYLSLGFYFDRDDVALEGVSHFFRELAEEKREGYERLLKMQNQRGGRALFQDIKKPAEDEWGKTPDAMKAAMALEKKLNQALLDLHALGSARTDPHLCDFLETHFLDEEVKLIKKMGDHLTNLHRGSRKRLDRNGGPEAGLGEYLFERLTLKHD
modifications: One monomer is given; it assembles into a 24-mer ferritin cage.
notes: Expressed from pET28a(+) via NdeI/XhoI and purified on Ni-NTA (His tag); also called ferritin having two inserted AP1 peptides; not shown: His tag from the pET28a(+) vector (Ni-NTA purification)

Tests used:
[1] = target: T1, IL-4 receptor protein immobilised on …; assay: SPR, IL-4 receptor immobilised, equilibrium fit
Description: (§1) Here, the right channel was used as a reference channel. In the two channels, left channel and right channel, 1M ethanolamine (pH 8.5) solution was allowed to flow over the unreacted surface for 7 min for blocking, so as to reduce non-specific adsorption thereof. All test procedures were conducted at a temperature of 25° C. and the flow rate was 25 ul/min.
The buffer (20 mM Tris-HCl pH 8.0, 150 mM NaCl, 180 mM Histidine, 62.5 ug/ml BSA, 0.005% Tween 20) was used through filtering and degassing. […] For regeneration, 2 M NaCl was allowed to flow over for 1 h to wash the proteins remaining without dissociation.
In the binding graph, the RU value expressing the amount of bound protein was measured by subtracting the blank (buffer) value and reference channel (right channel) value, using Scrubber software. The KD value was obtained from the binding RU (Req) values measured at the respective concentrations using KaleidaGraph software.

[2] = target: T1, IL-4 receptor protein immobilised on …; assay: SPR, IL-4 receptor immobilised
Description: as §1

Binder | Kd [1] [nM] | Kd [2] [nM] | koff [2] [s⁻¹] | kon [2] [M⁻¹ s⁻¹] | fold enhancement of binding affinity against FTL-AP1 [2] [times]
B1 | 25.9 | – | – | – | –
B2 | 9.9 | – | – | – | –
B3 | 1.19 | 0.443 | 0.00125 | 1.22e+06 | –
B4 | 4.29 | – | – | – | –
B5 | – | 0.0458 | 3.8e-05 | 826000 | 10
